These results are taken from article PMC10885737 (Journal of molecular biology, 2023).

Like-named read-outs stand apart in the source and are kept apart here.

The target of data set [1] is soluble disulfide-stabilized HIV-1 CA hexamer (A14C/E45C/W184A/M185A) (Human immunodeficiency virus type 1 group M subtype B, UniProt P12493, A146C/E177C/M317A/W316A). Kind of data set: biochemical. The data set is classed as binding.
Data set [2] deals with soluble, disulfide-crosslinked HIV-1 CA hexamer (A14C/E45C/W184A/M185A) (HIV-1). Kind of data set: nanoDSF.
Data set [3] addresses disulfide-crosslinked A14C/E45C HIV-1 CA tubes (HIV-1). Kind of data set: co-sedimentation.
Data set [4] deals with soluble, disulfide-crosslinked HIV-1 CA hexamer (A14C/E45C/W184A/M185A) (HIV-1). Kind of data set: cryo-EM structure.
Data set [5] has the same target. Kind of data set: nanoDSF. This is another data set of the same source.
Data set [6] is described as follows: Observation of proteolysis during protein preparation. The data set is classed as physicochemical. The note with it: recombinant protein preparation from E. coli.

Ac-EIIAEDYDDDPVDYE-NH2 [15–6] displayed an equilibrium dissociation constant (Kd) in data set [1] of 54 ± 0.4 nM. On to “PQBP1 Nt peptide (residues 1–46) (from UniProt O60828 1-46)”, for which, in data set [2], the Kd was 503 nM. Turning to “full-length recombinant PQBP1 (polyglutamine binding protein 1) (from UniProt O60828 1-265) (natural protein)”, in data set [2], the shift in apparent Tm of CA came to 2 °C. The molecule also yielded a percent of input pelleted with the CA tubes in data set [3] of 17%. Turning to “soluble, disulfide-crosslinked HIV-1 CA hexamer (A14C/E45C/W184A/M185A) (complex)”, the stoichiometry N in data set [4] is 6.

Turning to Ac-EIIAEDYDDDPVDYE-NH2 [PQBP1 15-mer peptide 15–6], the Kd in data set [5] was determined as 54 nM.

B1: DE-to-G: recombinant DE-to-G PQBP1 mutant protein (protein)
chain: MPLPVALQTRLAKRGILKHLEPEPGGGIIAEDYGGGPVDYEATRLEGLPPSWYKVFDPSCGLPYYWNADTDLVSWLSPHDPNSVVTKSAKKLRSSNADAEEKLDRSHDKSDRGHDKSDRSHEKLDRGHDKSDRGHDKSDRDRERGYDKVDRERERDRERDRDRGYDKADREEGKERRHHRREELAPYPKSKKAVSRKDEELDPMDPSSYSDAPRGTWSTGLPKRNEAKTGADTTAAGPLFQQRPYPSPGAVLRANAEASRTKQQD
modifications: left off: His-tag (with Gly-Gly linker), C-terminal, state not stated
For the molecule B1, in data set [6], the “Susceptibility to proteolysis” value was “prone to proteolysis”.
